Experimental data as given in patent US9598677B2, “Use of human biliverdin reductase and fragments thereof for the treatment of protein kinase C-delta and ERK related conditions” (University of Rochester, priority 2009, dated 2017).
Ends that are not written are not given here. * marks the point of attachment. Myristoyl = CCCCCCCCCCCCCC(=O)*

What was measured:
PKC-δ [1] = target: T1, PKC-δ (Homo sapiens, UniProt Q05655, DEL151-160); assay: PKC-δ activity assay in situ in 293A cells; type: cell-based; conditions: myristoylated peptide, FIG. 5C
T1 construct: The human PKC-δ open reading frame was also cloned in the same vectors; expressed in transfected cells; host or cells: HEK 293A
T1 sequence (Q05655 with tags, fused parts or gaps DEL151-160): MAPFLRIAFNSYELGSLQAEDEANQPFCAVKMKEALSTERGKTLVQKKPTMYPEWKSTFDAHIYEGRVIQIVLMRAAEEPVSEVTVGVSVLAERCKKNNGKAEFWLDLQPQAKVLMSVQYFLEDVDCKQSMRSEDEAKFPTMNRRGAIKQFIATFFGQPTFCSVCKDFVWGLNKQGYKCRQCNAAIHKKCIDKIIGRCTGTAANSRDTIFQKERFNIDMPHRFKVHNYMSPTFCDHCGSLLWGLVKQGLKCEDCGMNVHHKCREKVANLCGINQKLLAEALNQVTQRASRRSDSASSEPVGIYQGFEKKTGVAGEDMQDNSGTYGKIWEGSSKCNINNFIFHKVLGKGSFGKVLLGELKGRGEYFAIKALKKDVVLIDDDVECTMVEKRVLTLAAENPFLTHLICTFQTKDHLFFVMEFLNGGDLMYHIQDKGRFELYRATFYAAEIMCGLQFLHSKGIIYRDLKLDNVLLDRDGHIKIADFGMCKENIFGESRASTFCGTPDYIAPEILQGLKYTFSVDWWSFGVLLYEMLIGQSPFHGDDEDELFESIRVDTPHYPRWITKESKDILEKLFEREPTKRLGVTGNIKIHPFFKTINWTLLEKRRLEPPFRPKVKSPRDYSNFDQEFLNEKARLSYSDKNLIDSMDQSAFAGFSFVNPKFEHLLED
Experimental: The PKC-δ activity assay in situ was performed by a modification of procedures detailed by Williams and Schrier (Williams et al., Glucose-Induced Protein Kinase C Activity Regulates Arachidonic Acid Release and Eicosanoid Production by Cultured Glomerular Mesangial Cells,” J. Clin. Invest. 92:2889-2896 (1993), which is hereby incorporated by reference in its entirety). Cells were seeded into 48-well plates and transfected with 0.1 μg/well pcDNA3-hBVR. After 24 h, the medium was replaced with a starvation medium (0.1% serum) and incubation continued for another 24 h to synchronize cells. In some wells, PKC inhibitor Rottlerin (20 μM) was added 30 min before addition of PMA (100 nM) for 15 min. In some wells, hBVR-derived peptides were introduced to cells in their myristoylated form. Cells were washed with medium and incubated for 10 min at 30° C. in 50 μl of kinase assay buffer (137 mM NaCl, 5.4 mM KCl, 10 mM MgCl2, 0.3 mM Na2HPO4, 0.4 mM KH2PO4, 25 mM β-glycerophosphate, 5.5 mM D-glucose, 5 mM EGTA, 1 mM CaCl2, 20 mM HEPES (pH 7.2), 50 μg/ml digitonin, 120 μg/ml of PKC-δ specific substrate (ARRKRKGSFFGG; SEQ ID NO: 52) and 100 μM ATP labeled with 10 μCi/ml [γ-^32P]-ATP). The reaction was stopped with the addition of 25 μl of ice-cold 30% (wt/vol) TCA. The TCA-soluble fraction samples were transferred to p81 phospho-cellulose filters. […]

recombinant human PKC-δ = assay: PKC-δ kinase assay in vitro (p81 filter / autoradiography); type: biochemical
Experimental: Measurement of PKC-δ activity: In vitro kinase activity assays were performed with active recombinant human PKC-δ kinase (as a GST fusion protein). PKC-δ assay in vitro was performed using 5 ng purified enzyme in a 50 μl assay containing 50 mM HEPES pH 7.4, 10 mM MgCl2, 0.2 mM DTT, sonicated lipid activators (0.5 μg phosphatidylserine and 0.05 μg diacylglycerol) or lipid activators plus PMA (as indicated in appropriate experiments) and PKC-δ substrates. The reaction was started by the addition of 50 μM ATP labeled with 5 μCi [γ-^32P]-ATP. Incubation was performed for 15 min at 30° C., unless otherwise stated. The reaction was terminated on ice, either by the addition of Laemmli buffer followed by SDS-PAGE, transferred to PVDF membrane, and autoradiography, or by the addition of 1 volume 10% phosphoric acid for p81 transfer as described below. For autophosphorylation of PKC-δ 20 μM ATP was used to start the 40-min reaction.
When hBVR or its mutants were tested for their effect on PKC-δ activity, they were pre-incubated for 5 min at room temperature with the PKC prior to substrate addition. The hBVR-derived peptides were used at concentrations indicated in appropriate figures.
When hBVR or its mutants were assayed as the sole substrates for PKC, the incubation conditions were as described above and the incubation was for 40 min at 30° C. unless specified otherwise. The reaction was terminated by the addition of Laemmli buffer, and the reaction products were detected by SDS-PAGE, transfer to PVDF membrane, and autoradiography.
Measurement of PKC-δ activity: PKC-δ assay in vitro was performed using 0.1 ng/μl purified recombinant human PKC-δ kinase with reaction conditions specified by the manufacturer. Effector molecules such as hBVR or peptides were added 5 min prior to substrate. The reaction was started by the addition of [γ-^32P]-ATP (Lerner-Marmarosh et al., “Human Biliverdin Reductase: A Member of the Insulin Receptor Substrate Family with Serine/Threonine/Tyrosine Kinase Activity,” Proc. Natl. Acad. Sci. U.S.A. 102(20):7109-7114 (2005), which is hereby incorporated by reference in its entirety). Reaction products were detected either by gel electrophoresis and autoradiography or by the p81 filter assay. PKC-δ activity on agarose beads was also measured. Cell lysates were immunoprecipitated with anti-PKC-δ antibody followed by protein A/G agarose. The immunoprecipitates were used in kinase reactions containing 50 μM PKC-δ specific peptide substrate as above; incorporation of ^32P was measured by p81 method.

PKC-δ [2] = target: PKC-δ (Homo sapiens, UniProt Q05655); assay: PMA-induced PKC-δ membrane translocation, confocal microscopy; type: cell-based; set-up: inserting the open reading frame of PKC-δ into the plasmid pDsRed2-C1; expressed in transfected cells; host or cells: 293A; conditions: 10 μM myristoylated peptide, PMA 15 min, FIG. 5E
Chain of PKC-δ (Homo sapiens, UniProt Q05655) (Q05655 whole entry, the tested form may be a part): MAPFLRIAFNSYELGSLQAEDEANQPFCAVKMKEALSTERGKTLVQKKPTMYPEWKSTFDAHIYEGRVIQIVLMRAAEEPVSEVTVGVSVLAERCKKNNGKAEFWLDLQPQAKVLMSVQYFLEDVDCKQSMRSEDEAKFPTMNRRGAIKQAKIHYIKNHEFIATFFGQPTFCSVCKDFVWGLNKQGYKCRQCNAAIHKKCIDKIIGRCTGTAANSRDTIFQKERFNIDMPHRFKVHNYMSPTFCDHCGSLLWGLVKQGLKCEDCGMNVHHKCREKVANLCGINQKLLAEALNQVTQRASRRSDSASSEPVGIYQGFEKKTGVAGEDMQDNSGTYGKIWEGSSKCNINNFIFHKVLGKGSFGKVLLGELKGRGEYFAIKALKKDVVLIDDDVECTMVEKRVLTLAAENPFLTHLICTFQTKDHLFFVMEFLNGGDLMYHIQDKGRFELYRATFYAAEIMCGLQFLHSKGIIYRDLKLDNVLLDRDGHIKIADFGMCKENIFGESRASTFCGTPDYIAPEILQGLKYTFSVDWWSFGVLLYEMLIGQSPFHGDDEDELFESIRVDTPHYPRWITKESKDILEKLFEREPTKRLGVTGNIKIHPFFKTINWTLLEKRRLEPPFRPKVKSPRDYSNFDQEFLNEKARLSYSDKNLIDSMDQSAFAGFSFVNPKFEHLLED
Experimental: Confocal microscopy: Experimental protocols were based on those described by Edwards et al., “Carboxyl-Terminal Phosphorylation Regulates the Function and Subcellular Localization of Protein Kinase C betall,” J. Biol. Chem. 274:6461-6468 (1999), which is hereby incorporated by reference in its entirety. 293A cells were grown in a chamber slide system (Nalge-Nunc International Corp., Naperville, Ill.). Cells were transfected with pEGFP-hBVR and/or the plasmid expressing Ds2-Red-PKC-δ fusion protein. After a 24 h starvation period, cells were fixed for 10 min in 4% Para-formaldehyde in PBS and permeabilized with 1% Triton X-100 in PBS. The cells were mounted with Vectashield (Vector Laboratories, Inc. Burlingame, Calif.), containing DAPI to visualize the nuclei. Non-transfected cells were permeabilized as above, treated with 1:150 dilution of polyclonal anti-PKC-δ antibodies, washed, blocked, and then treated with polyclonal anti-hBVR antibodies. The PBS-washed cells were then treated with Rhodamine-red-conjugated donkey anti-rabbit IgG antibodies (Jackson ImmunoResearch, West Grove, Pa.) for 30 min, followed by mounting. A Leica TCS SP (model DMRE) confocal microscope was used (Maines et al., “Human Biliverdin Reductase: A Previously Unknown Activator of Protein Kinase C-βII,” J. Biol. Chem. 282:8110-8122 (2007), which is hereby incorporated by reference in its entirety).

activity of constitutively active PKC-δ in cells (PKC-δ [1]): effective inhibitor
inhibition of phosphorylation of the commercial substrate (recombinant human PKC-δ; 50 μM substrate/10 μM inhibitor, FIG. 5A): More than 90%
sensitivity of PKC-δ activity to the inhibitory peptide (recombinant human PKC-δ; MBP substrate, increasing peptide concentrations, FIG. 5D): most sensitive
PKC-δ translocation to the cell membrane upon PMA (PKC-δ [2]): effectively inhibited
Sequence: KRNRYLSF (Myristoyl-KRNRYLSF)
